# Reference: patent publication US20030068675, “Position dependent recognition of GNN nucleotide triplets by zinc fingers” (published 2003)
# Where a chain is given by its changes, count along the chain named.
# B1: GAAGAGGCA (dsDNA)
# DNA 1: GAAGAGGCA
# DNA 2: TGCCTCTTC
# B2: GTGGGGGCT (dsDNA)
# DNA 1: GTGGGGGCT
# DNA 2: AGCCCCCAC
# B3: ATGGGAGTT (dsDNA)
# DNA 1: ATGGGAGTT
# DNA 2: AACTCCCAT
# B4: CAGGGGGTT (dsDNA)
# DNA 1: CAGGGGGTT
# DNA 2: AACCCCCTG
# B5: ACGGCCGAG (dsDNA)
# DNA 1: ACGGCCGAG
# DNA 2: CTCGGCCGT
# B6: AAGGGTGCG (dsDNA)
# DNA 1: AAGGGTGCG
# DNA 2: CGCACCCTT
# B7: ATGGACTTG (dsDNA)
# DNA 1: ATGGACTTG
# DNA 2: CAAGTCCAT
# B8: GAAGAAGAG (dsDNA)
# DNA 1: GAAGAAGAG
# DNA 2: CTCTTCTTC
# B9: GCGGTGAGG (dsDNA)
# DNA 1: GCGGTGAGG
# DNA 2: CCTCACCGC
# B10: AAGGAAAGG (dsDNA)
# DNA 1: AAGGAAAGG
# DNA 2: CCTTTCCTT
# B11: GGAGAGGTTT (dsDNA)
# DNA 1: GGAGAGGTTT
# DNA 2: AAACCTCTCC
# B12: CAGGAGGGC (dsDNA)
# DNA 1: CAGGAGGGC
# DNA 2: GCCCTCCTG
# B13: GAATAGGGG (dsDNA)
# DNA 1: GAATAGGGG
# DNA 2: CCCCTATTC
# B14: AAGGGAGAC (dsDNA)
# DNA 1: AAGGGAGAC
# DNA 2: GTCTCCCTT
# B15: TGGGACCTG (dsDNA)
# DNA 1: TGGGACCTG
# DNA 2: CAGGTCCCA
# B16: CTGGATGTT (dsDNA)
# DNA 1: CTGGATGTT
# DNA 2: AACATCCAG
# B17: GGGGAGGCA (dsDNA)
# DNA 1: GGGGAGGCA
# DNA 2: TGCCTCCCC
# B18: GGGGTTGAA (dsDNA)
# DNA 1: GGGGTTGAA
# DNA 2: TTCAACCCC
# B19: TGGTAGGGGG (dsDNA)
# DNA 1: TGGTAGGGGG
# DNA 2: CCCCCTACCA
# B20: GTCGCGGTG (dsDNA)
# DNA 1: GTCGCGGTG
# DNA 2: CACCGCGAC
# Columns and labels:
# Assay in all cases: EMSA
# Settings in all cases: tags: MBP fusion
# ZFP SBS#1217 = ZFP SBS#1217 (synthetic)
# How it was run: (§1)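 Purified ZFP was titrated against labeled double-stranded target (1 nM or lower, at least 10-fold below expected Kd) carrying the natural binding site with flanks. Binding buffer was 10 mM Tris pH 7.5, 100 mM KCl, 1 mM MgCl2, 0.1 mM ZnCl2, 5 mM DTT, 10% glycerol, 0.02% BSA, with equilibration for at least 45 min. Bound and free target were separated on a 10% polyacrylamide gel.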
# ZFP SBS#1150 = ZFP SBS#1150 (synthetic)
# How it was run: as §1
# ZFP SBS#498 = ZFP SBS#498 (synthetic, UniProt P08047)
# How it was run: as §1
# ZFP SBS#937 = ZFP SBS#937 (synthetic)
# How it was run: as §1
# ZFP SBS#938 = ZFP SBS#938 (synthetic, UniProt P08047)
# How it was run: as §1
# ZFP SBS#1215 = ZFP SBS#1215 (synthetic, UniProt P08047)
# How it was run: as §1
# ZFP SBS#1101 = target: T1, ZFP SBS#1101 (synthetic)
# T1 chain: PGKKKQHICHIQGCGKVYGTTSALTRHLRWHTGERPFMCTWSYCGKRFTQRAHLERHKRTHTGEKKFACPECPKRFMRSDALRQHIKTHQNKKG
# How it was run: as §1
# ZFP SBS#1214 = target: T2, ZFP SBS#1214 (synthetic)
# T2 chain: T1 chain with R83T
# How it was run: as §1
# ZFP SBS#1127 = target: T3, ZFP SBS#1127 (synthetic)
# T3 chain: T1 chain with T20Q, T21S, T25A, Q50R, R51S, A52D, E55T, A81N, Q84E
# How it was run: as §1
# ZFP SBS#1212 = target: T4, ZFP SBS#1212 (synthetic, UniProt P08047)
# T4 chain: T1 chain with Q50R, R51S, A52D, E55T, A81N, Q84E
# How it was run: as §1
# ZFP SBS#1139 = target: T5, ZFP SBS#1139 (synthetic)
# T5 chain: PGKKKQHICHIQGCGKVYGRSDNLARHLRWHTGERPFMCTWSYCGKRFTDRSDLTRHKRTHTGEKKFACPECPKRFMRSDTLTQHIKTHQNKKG
# How it was run: as §1
# ZFP SBS#1228 = target: T6, ZFP SBS#1228 (synthetic)
# T6 chain: T5 chain with T81D
# How it was run: as §1
# ZFP SBS#1229 = target: T7, ZFP SBS#1229 (synthetic)
# T7 chain: T5 chain with N23E, A25T, D50M, R51S, S52H, D53H, T55S, T81N
# How it was run: as §1
# ZFP SBS#1140 = ZFP SBS#1140 (synthetic)
# How it was run: as §1
# ZFP SBS#1223 = target: T8, ZFP SBS#1223 (synthetic)
# T8 chain: T5 chain with N23A, A25T, R26K, D53N, T81A
# How it was run: as §1
# ZFP SBS#1141 = target: T9, ZFP SBS#1141 (synthetic)
# T9 chain: T5 chain with S21G, N23A, A25T, R26S, D53N, T81A
# How it was run: as §1
# ZFP SBS#1224 = target: T10, ZFP SBS#1224 (synthetic)
# T10 chain: T5 chain with S21A, N23A, A25M, R26V, D53N, T81A
# How it was run: as §1
# ZFP SBS#1213 = target: T11, ZFP SBS#1213 (synthetic)
# T11 chain: T5 chain with A25T, D50Q, R51S, D53N, T55V, R78Q, D80G, T81N, Q84R
# How it was run: as §1
# ZFP SBS#1218 = ZFP SBS#1218 (synthetic)
# How it was run: as §1
# ZFP SBS#1219 = ZFP SBS#1219 (synthetic)
# How it was run: as §1
# ZFP SBS#1221 = ZFP SBS#1221 (synthetic)
# How it was run: as §1
# ZFP SBS#1220 = ZFP SBS#1220 (synthetic)
# How it was run: as §1
# ZFP SBS#487 = target: T12, ZFP SBS#487 (synthetic)
# T12 chain: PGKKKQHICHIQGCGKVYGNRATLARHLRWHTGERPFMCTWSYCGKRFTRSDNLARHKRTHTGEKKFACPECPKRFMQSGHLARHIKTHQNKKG
# How it was run: as §1
# ZFP SBS#485 = ZFP SBS#485 (synthetic)
# How it was run: as §1
# ZFP SBS#1222 = target: T13, ZFP SBS#1222 (synthetic, UniProt P08047)
# T13 chain: T12 chain with N20D, A22S, T23H, Q78R, G80D, H81N, A83R, R84E
# How it was run: as §1
# ZFP SBS#1227 = ZFP SBS#1227 (synthetic)
# How it was run: as §1
# ZFP SBS#1230 = ZFP SBS#1230 (synthetic)
# How it was run: as §1
# ZFP SBS#1231 = target: T14, ZFP SBS#1231 (synthetic)
# T14 chain: T1 chain with T20D, T21R, A23N, A81N, R83T
# How it was run: as §1
# ZFP SBS#1233 = target: T15, ZFP SBS#1233 (synthetic)
# T15 chain: T5 chain with N23A, A25R, R26E, D53N, T81H, Q84T
# How it was run: as §1
# ZFP SBS#1232 = target: T16, ZFP SBS#1232 (synthetic)
# T16 chain: T5 chain with N23A, A25R, R26E, D53N, T81H, Q84T
# How it was run: as §1
# ZFP SBS#1238 = target: T17, ZFP SBS#1238 (synthetic)
# T17 chain: T1 chain with T20Q, T21S, T25A, Q50T, R51S, A52G, H53N, E55V, Q84E
# How it was run: as §1
# ZFP SBS#1240 = target: T18, ZFP SBS#1240 (synthetic, UniProt P08047)
# T18 chain: T12 chain with N20Q, R21S, A22G, T23S, A25T, A55T, Q78R, G80D, A83S
# How it was run: as §1
# ZFP SBS#1242 = target: T19, ZFP SBS#1242 (synthetic)
# T19 chain: T5 chain with R20Q, D22A, D50T, R51S, S52G, D53S, T81H, T83S, Q84R
# How it was run: as §1
# ZFP SBS#1243 = target: T20, ZFP SBS#1243 (synthetic)
# T20 chain: T5 chain with R20Q, D22A, D50Q, R51S, D53A, T81H, T83S, Q84R
# How it was run: as §1
# ZFP SBS#488 = target: T21, ZFP SBS#488 (synthetic)
# T21 chain: T5 chain with N23H, D50R, R51S, S52D, D53N, R56T, T81H, Q84T
# How it was run: as §1
# ZFP SBS#1244 = ZFP SBS#1244 (synthetic)
# How it was run: as §1
# ZFP SBS#1245 = target: T22, ZFP SBS#1245 (synthetic)
# T22 chain: T12 chain with N20R, R21S, A22D, T23A, A25T, N53E, A55Q, Q78D, H81S, A83T
# How it was run: as §1
# Sequence of ZFP SBS#1219 (synthetic) (chain, as listed by the source): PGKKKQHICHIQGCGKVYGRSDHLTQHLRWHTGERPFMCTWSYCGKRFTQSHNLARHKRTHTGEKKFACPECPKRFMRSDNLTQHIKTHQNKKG
# Sequence of ZFP SBS#1217 (synthetic) (chain, as listed by the source): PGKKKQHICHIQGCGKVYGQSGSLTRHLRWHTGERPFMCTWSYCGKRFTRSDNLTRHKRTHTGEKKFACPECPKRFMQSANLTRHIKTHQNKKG
# Sequence of ZFP SBS#498 (P08047 other isoform, or with tags, fused parts or gaps): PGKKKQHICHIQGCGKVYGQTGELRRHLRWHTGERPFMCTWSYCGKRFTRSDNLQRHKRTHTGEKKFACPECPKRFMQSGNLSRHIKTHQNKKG
# Sequence of ZFP SBS#1221 (synthetic) (chain, as listed by the source): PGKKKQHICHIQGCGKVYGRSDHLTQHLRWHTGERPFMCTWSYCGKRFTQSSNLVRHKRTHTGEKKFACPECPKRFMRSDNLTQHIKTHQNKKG
# Sequence of ZFP SBS#1220 (synthetic) (chain, as listed by the source): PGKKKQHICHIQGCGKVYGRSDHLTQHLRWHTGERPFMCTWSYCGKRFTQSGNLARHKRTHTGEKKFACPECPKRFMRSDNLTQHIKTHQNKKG
# Sequence of ZFP SBS#1150 (synthetic) (chain, as listed by the source): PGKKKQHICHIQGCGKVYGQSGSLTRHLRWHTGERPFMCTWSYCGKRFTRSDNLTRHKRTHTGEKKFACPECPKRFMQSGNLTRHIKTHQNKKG
# Sequence of ZFP SBS#485 (synthetic) (chain, as listed by the source): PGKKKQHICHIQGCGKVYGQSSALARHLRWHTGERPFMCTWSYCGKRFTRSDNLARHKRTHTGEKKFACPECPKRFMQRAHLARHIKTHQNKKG
# Sequence of ZFP SBS#1215 (P08047 other isoform, or with tags, fused parts or gaps): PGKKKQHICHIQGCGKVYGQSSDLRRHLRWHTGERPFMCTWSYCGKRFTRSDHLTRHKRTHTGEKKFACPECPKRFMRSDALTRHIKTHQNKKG
# Sequence of ZFP SBS#937 (synthetic) (chain, as listed by the source): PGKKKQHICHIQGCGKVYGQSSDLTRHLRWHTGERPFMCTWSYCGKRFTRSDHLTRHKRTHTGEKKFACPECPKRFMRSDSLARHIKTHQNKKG
# Sequence of ZFP SBS#1218 (synthetic) (chain, as listed by the source): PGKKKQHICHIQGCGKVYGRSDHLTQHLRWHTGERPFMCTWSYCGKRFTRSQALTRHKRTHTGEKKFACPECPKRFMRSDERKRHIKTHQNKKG
# Sequence of ZFP SBS#1227 (synthetic) (chain, as listed by the source): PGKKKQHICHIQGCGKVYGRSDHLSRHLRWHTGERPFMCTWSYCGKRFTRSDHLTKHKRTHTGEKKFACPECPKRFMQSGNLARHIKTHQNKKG
# Sequence of ZFP SBS#1140 (synthetic) (chain, as listed by the source): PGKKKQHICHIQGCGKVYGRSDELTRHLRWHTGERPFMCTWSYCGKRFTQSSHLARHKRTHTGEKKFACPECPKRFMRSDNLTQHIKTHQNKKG
# Sequence of ZFP SBS#1230 (synthetic) (chain, as listed by the source): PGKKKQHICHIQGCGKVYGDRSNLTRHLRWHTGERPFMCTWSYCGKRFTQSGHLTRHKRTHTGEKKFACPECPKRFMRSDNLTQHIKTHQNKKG
# Sequence of ZFP SBS#938 (P08047 other isoform, or with tags, fused parts or gaps): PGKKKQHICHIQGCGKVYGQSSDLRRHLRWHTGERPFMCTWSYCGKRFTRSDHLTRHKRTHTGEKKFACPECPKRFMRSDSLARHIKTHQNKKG
binder,measurement,setting,value
B1,Kd,ZFP SBS#1217,0.004 nM
same,Kd,ZFP SBS#1150,0.004 nM
same,Kd,ZFP SBS#498,30 nM
B2,Kd,ZFP SBS#937,0.03 nM
same,Kd,ZFP SBS#938,0.049 nM
same,Kd,ZFP SBS#1215,0.003 nM
B3,Kd,ZFP SBS#1101,0.065 nM
same,Kd,ZFP SBS#1214,0.46 nM
B4,Kd,ZFP SBS#1127,0.1 nM
same,Kd,ZFP SBS#1212,0.05 nM
B5,Kd,ZFP SBS#1139,0.535 nM
same,Kd,ZFP SBS#1228,12 nM
B6,Kd,ZFP SBS#1229,8.2 nM
same,Kd,ZFP SBS#1140,0.3 nM
B7,Kd,ZFP SBS#1223,7 nM
same,Kd,ZFP SBS#1141,1.7 nM
same,Kd,ZFP SBS#1224,12 nM
B8,Kd,ZFP SBS#1213,12.3 nM
B9,Kd,ZFP SBS#1218,0.46 nM
B10,Kd,ZFP SBS#1219,0.68 nM
same,Kd,ZFP SBS#1221,1.4 nM
same,Kd,ZFP SBS#1220,0.175 nM
B11,Kd,ZFP SBS#487,76.9 nM
same,Kd,ZFP SBS#485,110 nM
B12,Kd,ZFP SBS#1222,0.155 nM
B13,Kd,ZFP SBS#1227,25 nM
B14,Kd,ZFP SBS#1230,0.383 nM
same,Kd,ZFP SBS#1231,0.213 nM
B15,Kd,ZFP SBS#1233,0.635 nM
same,Kd,ZFP SBS#1232,0.113 nM
B16,Kd,ZFP SBS#1238,0.313 nM
B17,Kd,ZFP SBS#1240,0.056 nM
B18,Kd,ZFP SBS#1242,0.02 nM
same,Kd,ZFP SBS#1243,0.101 nM
B19,Kd,ZFP SBS#488,35 nM
B20,Kd,ZFP SBS#1244,0.044 nM
same,Kd,ZFP SBS#1245,0.102 nM
